Measurements published in article PMC2211785 (The Journal of Experimental Medicine, 2004).

Biological target: JNK-2 (human (endogenous in HUVEC), UniProt P45984 1-424)
Assay: co-IP

- fold increase of association by PEDF combined with VEGF or bFGF: > 20 fold
B1: NFATc2 (natural protein)
chain: MNAPERQPQPDGGDAPGHEPGGSPQDELDFSILFDYEYLNPNEEEPNAHKVASPPSGPAYPDDVLDYGLKPYSPLASLSGEPPGRFGEPDRVGPQKFLSAAKPAGASGLSPRIEITPSHELIQAVGPLRMRDAGLLVEQPPLAGVAASPRFTLPVPGFEGYREPLCLSPASSGSSASFISDTFSPYTSPCVSPNNGGPDDLCPQFQNIPAHYSPRTSPIMSPRTSLAEDSCLGRHSPVPRPASRSSSPGAKRRHSCAEALVALPPGASPQRSRSPSPQPSSHVAPQDHGSPAGYPPVAGSAVIMDALNSLATDSPCGIPPKMWKTSPDPSPVSAAPSKAGLPRHIYPAVEFLGPCEQGERRNSAPESILLVPPTWPKPLVPAIPICSIPVTASLPPLEWPLSSQSGSYELRIEVQPKPHHRAHYETEGSRGAVKAPTGGHPVVQLHGYMENKPLGLQIFIGTADERILKPHAFYQVHRITGKTVTTTSYEKIVGNTKVLEIPLEPKNNMRATIDCAGILKLRNADIELRKGETDIGRKNTRVRLVFRVHIPESSGRIVSLQTASNPIECSQRSAHELPMVERQDTDSCLVYGGQQMILTGQNFTSESKVVFTEKTTDGQQIWEMEATVDKDKSQPNMLFVEIPEYRNKHIRTPVKVNFYVINGKRKRSQPQHFTYHPVPAIKTEPTDEYDPTLICSPTHGGLGSQPYYPQHPMVAESPSCLVATMAPCQQFRTGLSSPDARYQQQNPAAVLYQRSKSLSPSLLGYQQPALMAAPLSLADAHRSVLVHAGSQGQSSALLHPSPTNQQASPVIHYSPTNQQLRCGSHQEFQHIMYCENFAPGTTRPGPPPVSQGQRLSPGSYPTVIQQQNATSQRAAKNGPPVSDQKEVLPAGVTIKQEQNLDQTYLDDVNEIIRKEFSGPPARNQT
